The target of the assay is TcdB4.2 (full-length recombinant toxin B variant 4.2) (Clostridioides difficile). The assay can be described thus: BLI; as a1, KD calculated with the BLItz system software from the indicated concentrations (Supplementary Fig. 7); KD called estimated. The settings on record: both partners purified.

B1: mTFPI-Fc (Fc-tagged mouse TFPI) (Fc fusion)
chain: LSEEADDTDSELGSMKPLHTFCAMKADDGPCKAMIRSYFFNMYTHQCEEFIYGGCEGNENRFDTLEECKKTCIPGYEKTAVKAASGAERPDFCFLEEDPGLCRGYMKRYLYNNQTKQCERFVYGGCLGNRNNFETLDECKKICENPVHSPSPVNEVQMSDYVTDGNTVTDRSTVNNIVVPQSPKVPRRR
notes: source: Expi293F, transfected, purified from culture medium as His-tagged protein
As for B1, the Kd is approximately 63 nM.

Source of the values: PMC9646764 (Nature Communications, 2022).
